Data taken from paper PMC12630689 (Nature Communications, 2025).

Target: the molecule itself
Assay: cryo-EM structure

B1: Shaker-IR-I384R (Shaker zH4 K+ channel with fast inactivation removed, Δ6-46, with the I384R mutation) (natural protein, UniProt P08510 1-655, looked up)
chain: MAAVALREQQLQRNSLDGYGSLPKLSSQDEEGGAGHGFGGGPQHFEPIPHDHDFCERVVINVSGLRFETQLRTLNQFPDTLLGDPARRLRYFDPLRNEYFFDRSRPSFDAILYYYQSGGRLRRPVNVPLDVFSEEIKFYELGDQAINKFREDEGFIKEEERPLPDNEKQRKVWLLFEYPESSQAARVVAIISVFVILLSIVIFCLETLPEFKHYKVFNTTTNGTKIEEDEVPDITDPFFLIETLCIIWFTFELTVRFLACPNKLNFCRDVMNVIDIIAIIPYFITLATVVAEEEDTLNLPKAPVSPQDKSSNQAMSLAILRVIRLVRVFRIFKLSRHSKGLQRLGRTLKASMRELGLLIFFLFIGVVLFSSAVYFAEAGSENSFFKSIPDAFWWAVVTMTTVGYGDMTPVGVWGKIVGSLCAIAGVLTIALPVPVIVSNFNYFYHRETDQEEMQSQNFNHVTSCPYLPGTLGQHMKKSSLSESSSDMMDLDDGVESTPGLTETHPGRSAVAPFLGAQQQQQQPVASSLSMSIDKQLQHPLQQLTQTQLYQQQQQQQQQQQNGFKQQQQQTQQQLQQQQSHTINASAAAATSGSGSSGLTMRHNNALAVSIETDV
Question: B1 was tested. Which “stoichiometry N” value did it give?
Answer: 4
